The target of this experiment is T1, Mouse Cerberus 1 homologue (mCer1) recombinant protein (mouse, UniProt O55233 18-272).
T1 chain: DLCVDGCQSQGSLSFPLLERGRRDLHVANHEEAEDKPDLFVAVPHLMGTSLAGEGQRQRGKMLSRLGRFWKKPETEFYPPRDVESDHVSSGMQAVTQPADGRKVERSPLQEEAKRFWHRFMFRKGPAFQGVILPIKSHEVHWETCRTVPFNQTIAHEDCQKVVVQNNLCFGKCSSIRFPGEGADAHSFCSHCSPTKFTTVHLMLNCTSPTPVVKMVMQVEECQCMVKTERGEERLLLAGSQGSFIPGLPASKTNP
Put plainly: SPR. (Surface plasmon resonance follows binding to a sensor surface in real time, without labels.)

The term Kd denotes the concentration at which binding is half-saturated.

B1: hBMP2 (ligand)
chain: QAKHKQRKRLKSSCKRHPLYVDFSDVGWNDWIVAPPGYHAFYCHGECPFPLADHLNSTNHAIVQTLVNSVNSKIPKACCVPTELSAISMLYLDENEKVVLKNYQDMVVEGCGCR
In the case of B1, the Kd stood at 3.38 nM.

B2: hBMP4 (ligand)
chain: SPKHHSQRARKKNKNCRRHSLYVDFSDVGWNDWIVAPPGYQAFYCHGDCPFPLADHLNSTNHAIVQTLVNSVNSSIPKACCVPTELSAISMLYLDEYDKVVLKNYQEMVVEGCGCR
Take B2: the dissociation constant (Kd) worked out at 23.4 nM.

Values taken from publication PMC3219680 (2011).
